# Source: paper PMC10020961, “Structural Elucidation of Ivermectin Binding to α7nAChR and the Induced Channel Desensitization” (ACS Chemical Neuroscience, 2023)
# Tests used:
# [1] = molecular target: full-length human α7 nicotinic acetylcholine receptor (human) (UniProt P36544); experiment: SEC; S200 10/300 column, 20 mM HEPES pH 7.4, 300 mM NaCl, 0.2% DPC or 0.1% LDAO; pentamer fraction isolated
# [2] = molecular target: the molecule itself; experiment: NMR structure (NMR and ESR restraints with Rosetta comparative modelling); α7nAChR TMD + ICD in LDAO micelles, pH 4.7, 25 mM NaCl, 318 K, with ivermectin; fivefold symmetry applied in the calculations
# Sequence of full-length human α7 nicotinic acetylcholine receptor (P36544 23-502 limits assumed): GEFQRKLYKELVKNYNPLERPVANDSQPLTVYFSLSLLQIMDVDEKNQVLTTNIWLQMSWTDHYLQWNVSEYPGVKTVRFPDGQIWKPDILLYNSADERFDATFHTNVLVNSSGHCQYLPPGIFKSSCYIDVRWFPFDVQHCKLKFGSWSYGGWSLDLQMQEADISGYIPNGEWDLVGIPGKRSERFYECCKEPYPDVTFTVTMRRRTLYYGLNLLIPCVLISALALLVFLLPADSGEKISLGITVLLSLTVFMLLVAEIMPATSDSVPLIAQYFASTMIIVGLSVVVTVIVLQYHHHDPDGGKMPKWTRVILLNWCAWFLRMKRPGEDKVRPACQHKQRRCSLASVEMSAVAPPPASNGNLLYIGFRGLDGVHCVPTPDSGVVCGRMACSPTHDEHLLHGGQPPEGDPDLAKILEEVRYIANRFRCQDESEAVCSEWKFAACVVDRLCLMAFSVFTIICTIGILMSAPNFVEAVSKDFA
molecule,measurement,setting,value
full-length human α7 nicotinic acetylcholine receptor (from UniProt P36544 23-502),stoichiometry N,[1],5
"human α7 nicotinic acetylcholine receptor construct containing the transmembrane and intracellular domains (α7nAChR TMD + ICD) (domain or fragment, α7 nicotinic acetylcholine receptor, human; construct with the transmembrane domain (TMD) and intracellular domain (ICD), without the extracellular domain; also called α7 TMD + ICD; α7 TMD-ICD; source: E. coli Rosetta 2(DE3) pLysS, purified (NiNTA, SEC pentamer fraction), in LDAO micelles) LYYGLNLLIPCVLISALALLVFLLPADSGEKISLGITVLLSLTVFMLLVAEIMPATSDSVPLIAQYFASTMIIVGLSVVVTVIVLQYHHHDPDGGKMPKWTRVILLNWCAWFLRMKRPGEDKVRPACQHKQRRCSLASVEMSAVAPPPASNGNLLYIGFRGLDGVHCVPTPDSGVVCGRMACSPTHDEHLLHGGQPPEGDPDLAKILEEVRYIANRFRCQDESEAVCSEWKFAACVVDRLCLMAFSVFTIICTIGILMSAPNFVE",stoichiometry N,[2],5
